From patent US5852187A, “Molecular cloning of the ovine pituitary growth hormone releasing hormone receptor” (priority 1996, dated 1998)
Several values for one entry are separate records, joined by “and”; a condition that tells them apart may be missing. Equal values may be shown once. Entries after “also recorded” stand apart in the source; their conditions may differ. Read-outs that look alike come from different tables or passages of the source. Where no end group is shown, it is not given here. [ ]: non-standard residue; d: D form. The star is where a group is joined. Nle = CCCC[C@H](N)C(=O)O; 125I = [125I]*

Legend:
GHRH receptor (GHRH-R) = test: 125I-GHRHa binding assay in crude anterior pituitary membrane pellets; set-up: species or system ovine; conditions: for competition for the 125I-GHRHa binding site: 100 nM competing peptide; for displacement of GHRH in ovine pituitary: at 500 nM
Procedure: Specific binding is defined as the difference in the binding seen with 20 pM iodinated analog alone and binding of the analog in the presence of 10 nM non-iodinated GHRHa.
All steps were performed at 4° C. Frozen ovine or bovine anterior pituitaries (ovine: approximately 1 gm/pituitary obtained from Dr. Ian Clarke, Melbourne, Australia; bovine: approximately 2.5 gm/pituitary special handling from Pel-Freez, of Rogers, Ark.) were washed of blood, cleaned of connective tissue and homogenized (using a Dounce homogenizer) in 50 mM HEPES buffer, 100 mM NaCl, 10 mM EDTA, 0.1 μM EGTA, pH 7.4 with 0.5 mM PMSF (phenyl methyl sulfonyl fluoride), 10 μg/ml leupeptin, 10 μg/ml pepstatin A, and 200 U/ml (units/ml) aprotinin. This buffer is used to remove endogenous GTP which might be bound to G proteins and to restore high affinity binding. The homogenate was spun at top speed in a microfuge and the supernatant discarded. The upper (membrane) layer of the pellet was then gently resuspended in binding buffer containing 50 mM Tris buffer, 5 mM EGTA, 5 mM MgCl2, 50 μg/ml alamethicin, 30 μg/ml bacitracin and other protease inhibitors as above.
1/50 pituitary equivalent per tube was incubated in binding buffer with approximately 100,000 counts of iodinated probe in a volume of 500 μl at room temperature for 1 hour. The total counts delivered and the percent of counts bound for each tube was determined with 3 to 6 replicates per experimental condition. Saturation binding profiles were analyzed with the computer program Ligand which performs a statistically weighted least squares fit to the exact ligand binding equation in nontransformed coordinates.

GHRH-R (55 kDa band) = test: Photoaffinity cross-linking / photoprobe binding in pituitary membrane pellets (gamma counting, SDS-PAGE autoradiography); set-up: species or system ovine
Procedure: Photoprobe binding in ovine pituitary membrane pellets was determined by γ-counting and UV induced cross-linking was examined by autoradiography of sodium dodecylsulfate polyacrylamide electrophoresis (SDS-PAGE) gels. ^125 I-GHRHa -ANB-NOS probe bound with an affinity of about one nanomole, nM (compared to about 160 picomole, pM, for GHRHa).
Photoprobe binding to membranes was evaluated with crude membrane binding assay and then analyzed further by SDS-PAGE electrophoresis to identify the binding sites. Photoprobes were incubated in the dark, photolysed for 10 minutes with a long wave (366 nm) UV lamp, and then the samples were pelleted. The pellets were counted and then extracted by boiling directly in SDS sample buffer (total SDS extracts). Alternatively, the labeled pellets were extracted in a mild detergent solution (5 mM CHAPS) centrifuged, and the chloroform/methanol concentrated supernatants denatured with SDS buffer (CHAPS extracts). These samples were then electrophoresed in SDS gels and autoradiographed.

[1] = target: T1, GHRH-R encoded by HAP 7 cDNA (Homo sapiens, UniProt Q02643); test: Iodinated GHRH binding to COS cell membranes transfected with pCDM8 containing HAP 7 cDNA; conditions: for effect on binding of iodinated GHRH: 100 nM peptide, HAP transfected COS cells or membranes
T1 construct: expressed in transfected cells; host or cells: Cos-1 cells (membranes), pCDM8 vector
T1 sequence (Q02643 23-423): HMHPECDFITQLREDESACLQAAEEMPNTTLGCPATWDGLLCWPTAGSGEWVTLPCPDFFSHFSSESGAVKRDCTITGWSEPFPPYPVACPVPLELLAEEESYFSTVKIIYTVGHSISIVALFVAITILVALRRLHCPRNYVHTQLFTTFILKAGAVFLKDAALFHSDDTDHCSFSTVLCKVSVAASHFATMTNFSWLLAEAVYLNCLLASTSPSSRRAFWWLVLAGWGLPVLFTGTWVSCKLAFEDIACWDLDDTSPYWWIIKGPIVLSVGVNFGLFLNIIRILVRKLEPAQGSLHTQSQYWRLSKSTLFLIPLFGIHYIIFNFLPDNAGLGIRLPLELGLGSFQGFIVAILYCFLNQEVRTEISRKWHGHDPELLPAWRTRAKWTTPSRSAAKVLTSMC
Procedure: Cos-1 cells were transfected with the vector formed by splicing pCDM8 and HAP cDNA, and Cos-1 cell membranes were prepared 72 hours subsequently. Cos-1 cells were transfected using 10 μg of plasmid DNA per 6×10^5 cells in a 100-mm dish using the DEAE-dextran method described by Cullen. […] COS cell cultures were transfected in parallel with pCDM8 containing a cDNA encoding the rat AT1 angiotensin II receptor.

[2] = target: T2, secretin and VIP receptors (Homo sapiens, UniProt P47872); conditions: at 10 μM; cited from earlier work
T2 construct: host or cells: human pancreas tissue

[3] = target: human GHRH receptor encoded by HAP 7.3 cDNA (human); test: competition with iodinated GHRH analog, membranes of COS cells transfected with HAP 7 (FIG. 16)
[4] = target: ovine pituitary growth hormone releasing hormone receptor (ovine); test: saturation binding analysed with the program Ligand, crude pituitary membrane pellets
[5] = target: pituitary GHRH receptor (ovine or bovine, not said which at the place); test: charcoal-dextran binding assay on pituitary membrane preparations solubilized in CHAPS without prebound ligand; the ligand is not named
[6] = target: ovine pituitary growth hormone releasing hormone receptor (ovine); test: saturation binding analysed with the program Ligand, crude pituitary membrane pellets (FIG. 2)
[7] = target: ovine pituitary growth hormone releasing hormone receptor (ovine); test: saturation binding with increasing unlabeled GHRHa, crude pituitary membrane pellets (FIG. 2)
[8] = target: ovine pituitary growth hormone releasing hormone receptor (ovine); test: displacement of GHRH and its analogs, ovine anterior pituitary tissue
[9] = target: bovine pituitary GHRH receptor (bovine) (UniProt Q9TUJ0); test: displacement of GHRH and its analogs, bovine anterior pituitary tissue
[10] = target: ovine pituitary growth hormone releasing hormone receptor (ovine); test: binding and displacement of iodinated GHRH analog, ovine pituitary membranes (FIG. 17)
[11] = target: monobiotinylated GHRHa (human) (UniProt P01286); test: binding of iodinated biotinylated GHRHa forms to immobilized streptavidin, through the biotin group
[12] = target: dibiotinylated GHRHa (human) (UniProt P01286); test: as above

T2 sequence (P47872 23-440): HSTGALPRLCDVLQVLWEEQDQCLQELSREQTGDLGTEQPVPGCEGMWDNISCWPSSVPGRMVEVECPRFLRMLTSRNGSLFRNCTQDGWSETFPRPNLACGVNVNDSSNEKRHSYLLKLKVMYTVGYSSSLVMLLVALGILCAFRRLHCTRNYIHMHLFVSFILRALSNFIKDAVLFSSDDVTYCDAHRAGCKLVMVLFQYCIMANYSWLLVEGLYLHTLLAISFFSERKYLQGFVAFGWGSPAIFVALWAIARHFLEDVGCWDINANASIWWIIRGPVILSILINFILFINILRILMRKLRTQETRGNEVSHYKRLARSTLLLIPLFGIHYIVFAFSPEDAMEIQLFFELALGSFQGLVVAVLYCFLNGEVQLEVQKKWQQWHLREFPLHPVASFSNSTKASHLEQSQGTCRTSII

Molecule: O[C@H](CS)[C@H](O)CS (racemic) [dithiothreitol]
- effect on specific binding in the GHRH assay (GHRH receptor (GHRH-R); preincubation with 1 mM): completely eliminated

Molecule: Nc1nc2c(ncn2[C@@H]2O[C@H](COP(=O)(O)OP(=O)(O)OP(O)(O)=S)[C@@H](O)[C@H]2O)c(=O)[nH]1 [GTPγS]
- displacement of both photoprobes from membrane pellets (GHRH-R (55 kDa band); 50 μM GTPγS): partially displaced

Molecule: CC[C@H](C)[C@H](NC(=O)CNC(=O)[C@H](CC(=O)O)NC(=O)[C@H](CO)NC(=O)[C@@H](N)Cc1c[nH]cn1)C(=O)N[C@@H](Cc1ccccc1)C(=O)N[C@H](C(=O)N[C@@H](CC(=O)O)C(=O)N[C@@H](CO)C(=O)N[C@@H](Cc1ccc(O)cc1)C(=O)N[C@@H](CO)C(=O)N[C@@H](CCCNC(=N)N)C(=O)N[C@@H](Cc1ccc(O)cc1)C(=O)N[C@@H](CCCNC(=N)N)C(=O)N[C@@H](CCCCN)C(=O)N[C@@H](CCC(N)=O)C(=O)N[C@@H](CCSC)C(=O)N[C@@H](C)C(=O)N[C@H](C(=O)N[C@@H](CCCCN)C(=O)N[C@@H](CCCCN)C(=O)N[C@@H](Cc1ccc(O)cc1)C(=O)N[C@@H](CC(C)C)C(=O)N[C@@H](C)C(=O)N[C@@H](C)C(=O)N[C@H](C(=O)N[C@@H](CC(C)C)C(=O)NCC(=O)N[C@@H](CCCCN)C(=O)N[C@@H](CCCNC(=N)N)C(=O)N[C@@H](Cc1ccc(O)cc1)C(=O)N[C@@H](CCCCN)C(=O)N[C@@H](CCC(N)=O)C(=O)N[C@@H](CCCNC(=N)N)C(=O)N[C@H](C(=O)N[C@@H](CCCCN)C(=O)N[C@@H](CC(N)=O)C(=O)N[C@@H](CCCCN)C(N)=O)C(C)C)C(C)C)C(C)C)[C@@H](C)O [PACAP, pituitary adenylate cyclase activating peptide]
- competition for the 125I-GHRHa binding site (GHRH receptor (GHRH-R)): no competition; also recorded: did not compete
- displacement of GHRH in ovine pituitary (GHRH receptor (GHRH-R)): significant displacement

Molecule: C[C@H](N)C(=O)NCC(=O)N[C@H]1CSSC[C@@H](C(=O)O)NC(=O)[C@H](CO)NC(=O)[C@H]([C@@H](C)O)NC(=O)[C@H](Cc2ccccc2)NC(=O)[C@H]([C@@H](C)O)NC(=O)[C@H](CCCCN)NC(=O)[C@H](Cc2c[nH]c3ccccc23)NC(=O)[C@H](Cc2ccccc2)NC(=O)[C@H](Cc2ccccc2)NC(=O)[C@H](CC(N)=O)NC(=O)[C@H](CCCCN)NC1=O [somatostatin]
- effect on binding of iodinated GHRH [1]: unaffected

Molecule: GHRH(1-29)-NH2
- inhibition of 125I-secretin binding [2]: 20%

Molecule: GHRH: growth hormone releasing hormone; the competitor in FIG. 17 is GHRHa
- Kd (GHRH receptor (GHRH-R); ovine pituitary membranes, displacement data of FIG. 17, read-out: KD for GHRH binding in pituitary): 0.2 nM

Molecule: His^1, ^125 I-Tyr^10,Nle^27 human GHRH(1-29)NH2
- binding of radioligand to HAP cDNA transfected COS cell membranes ([1]; not seen in angiotensin receptor cDNA transfected COS cells): specific, high-affinity binding

Molecule: PACAP (pituitary adenylate cyclase activating peptide)
- Ki [3]: 30 nM

Molecule: PHM: competing peptide of the VIP family (HADGVFTSDFSKLLGQLSAKKYLESLM; ends and bridges not checked; UniProt P01282 81-107, looked up)
- effect on binding of iodinated GHRH [1]: unaffected

Molecule: [His1, Nle27]-GHRH-(1-32)-NH2 (from UniProt P01286) (peptide)
- Kd [4]: 0.158 nM
- Kd [5]: 500 nM
- Kd [6]: 0.15 nM
- Kd [7]: 0.16 nM
- fold lower displacing concentration than VIP or PACAP [8]: 500 fold and 1000 fold
- fold lower displacing concentration than VIP or PACAP [9]: 500 fold and 1000 fold
- Kd [10]: 0.2 nM

Molecule: [His 1, Nle27, Biotin-Lys4 1 ]-GHRH-(1-41)-NH2 [GHRHb]
- receptor binding affinity compared to GHRHa (GHRH receptor (GHRH-R)): comparable to GHRHa

Molecule: [His^1, Nle^27 ]-GHRH-(1-32)-NH2 [GHRHa]
- Kd (GHRH receptor (GHRH-R); crude ovine pituitary membranes, program Ligand, read-out: Kd, saturation binding to a single high affinity site): 0.158 nM and ~0.16 nM
- displacement of both photoprobes from membrane pellets (GHRH-R (55 kDa band); 10 nM GHRHa): totally displaced
- effect on photo-cross-linked 55 kDa band (GHRH-R (55 kDa band); 10 nM GHRHa, 125I-GHRHa-ANB-NOS probe): completely eliminated

Molecule: ^125 I-GHRHa -ANB-NOS: GHRHa coupled to N-5-azido-2-nitrobenzoyloxysuccinimide at lysine 12 or 21, then iodinated; photoprobe (YADAIFTNSY(125I)RKVLGQLSARKLLQDI[Nle]SRQQG-NH2; also: N-5-azido-2-nitrobenzoyl (ANB-NOS) on lysine 12 or 21)
- affinity of photoprobe binding (GHRH-R (55 kDa band); ovine pituitary membrane pellets, gamma-counting): about one

Molecule: ^125 I-GHRHa: radioiodinated GHRHa probe, monoiodinated and HPLC purified (YADAIFTNSY(125I)RKVLGQLSARKLLQDI[Nle]SRQQG-NH2)
- comparison with commercially available iodinated human GHRH (GHRH receptor (GHRH-R)): slightly better specific binding

Molecule: calcitonin
- effect on binding of iodinated GHRH [1]: unaffected

Molecule: immobilized streptavidin (from UniProt P22629) (tool reagent)
- percent of product bound [11]: > 90%
- percent of product bound [12]: > 90%

Molecule: monobiotinylated GHRHa: GHRHa biotinylated at lysine 12 or 21 with NHS-LC-Biotin, mono form resolved on HPLC (YADAIFTNSY(iodo)RKVLGQLSARKLLQDI[Nle]SRQQG-NH2; also: NHS-LC-Biotin on one of lysines 12 and 21)
- receptor binding affinity compared to GHRHa (GHRH receptor (GHRH-R)): two-fold reduced

Molecule: parathyroid hormone
- effect on binding of iodinated GHRH [1]: unaffected

Molecule: secretin
- effect on binding of iodinated GHRH [1]: unaffected

Molecule: vasoactive intestinal peptide [VIP]
- competition for the 125I-GHRHa binding site (GHRH receptor (GHRH-R)): no competition; also recorded: did not compete
- displacement of GHRH in ovine pituitary (GHRH receptor (GHRH-R)): not
- effect on binding of iodinated GHRH [1]: unaffected; also recorded: no effect
- inhibition of 125I-secretin binding [2]: 20%
- effect on photo-cross-linked 55 kDa band (GHRH-R (55 kDa band); 100 nM VIP): unaffected
